Test in all cases: fluorescence anisotropy
(Fluorescence polarisation rises when a labelled molecule tumbles more slowly, as on binding a larger partner.)

Data set [1] concerns the target T1, Sub1 (Saccharomyces cerevisiae, UniProt P54000 1-292).
T1 sequence: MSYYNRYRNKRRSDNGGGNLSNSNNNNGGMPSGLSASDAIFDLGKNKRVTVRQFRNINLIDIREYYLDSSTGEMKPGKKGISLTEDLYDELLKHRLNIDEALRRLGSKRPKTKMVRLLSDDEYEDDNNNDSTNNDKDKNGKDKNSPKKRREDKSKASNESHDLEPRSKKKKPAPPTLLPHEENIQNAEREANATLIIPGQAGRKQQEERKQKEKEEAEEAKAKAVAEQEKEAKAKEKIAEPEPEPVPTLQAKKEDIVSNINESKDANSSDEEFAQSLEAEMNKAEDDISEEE

Another data set has as its target PC4 (hSub1, p15) (human, UniProt P53999 1-127).
The target of data set [2] is T1, Sub1. This is another data set of the same source.

Read-outs that look alike come from different tables or passages of the source.

B1: ssDNA (FAM) (ssDNA)
DNA: GGTGTGTGGAGCGTGCGTTT
For B1, the Kd in the data set with Sub1 [1] was 21.2 ± 1.1 nM; with PC4 (hSub1, p15), 9 ± 0.9 nM.

B2: Duplex (FAM) (dsDNA)
DNA 1: GATACTATTGGGTGGGTAGGGTGGGTTTACATGT
DNA 2: ACATGTAAACCCACCCTACCCACCCAATAGTATC
B2: the binding result with Sub1 [2] is reported as “no binding”. This molecule returned a dissociation constant Kd with PC4 (hSub1, p15) of 38.7 ± 8 nM.

B3: SµG (FAM) (structured_DNA)
DNA: GAGCTGGGGTGAGCTGGGCTGAGCTGGGGTGAGCTGGGCTGAGCT
Consider B3, for which binding with Sub1 [2] was put at a Kd of 8.7 ± 1.7 nM.

By Kd is commonly meant the free concentration of one partner at which half of the binding sites on the other are occupied at equilibrium, for simple one-to-one binding. The low end stands for a tighter complex, the high end for a looser complex.

Source of the values: PMC5449603.
